Measured values published in patent US20220257784A1 (Bicycle, published 2022).
Starred links: 1 amine or outer side, 2 acyl side, 3 side chain; linkers in the order of their positions; H or OH if unused. Positions of bridges follow the written chain, without caps; N, C: chain ends. Non-standard residues stand in square brackets, D forms with d. No end group written: not given here. TATA = O=C(CC[*:1])N1CN(C(=O)CC[*:2])CN(C(=O)CC[*:3])C1; Ala(4-thiazolyl) = N[C@@H](Cc1cscn1)C(=O)O; Dip = N[C@H](C(=O)O)C(c1ccccc1)c1ccccc1; 1Nal = N[C@@H](Cc1cccc2ccccc12)C(=O)O; His(τ-Me) = Cn1cnc(C[C@H](N)C(=O)O)c1; d1Nal = N[C@H](Cc1cccc2ccccc12)C(=O)O; Hyp = O=C(O)[C@@H]1C[C@@H](O)CN1; hArg = N=C(N)NCCCC[C@H](N)C(=O)O; 2Thi = N[C@@H](Cc1cccs1)C(=O)O; 3Thi = N[C@@H](Cc1ccsc1)C(=O)O; Aad = N[C@@H](CCCC(=O)O)C(=O)O; His3Me = N3-methyl-L-histidine; Cysteamide = C(CS[*:3])N[*:1]; Cba = N[C@@H](CC1CCC1)C(=O)O; dNle = CCCC[C@@H](N)C(=O)O; NMeA = CN[C@@H](C)C(=O)O; Nle = CCCC[C@H](N)C(=O)O; Mpa = O=C(O)CCS

B1: BCY13129 (peptide)
peptide: [Mpa][Hyp]LVNPLCL[Dip]P[dD]WTC[dK]-NH2
modifications: linker (positions not given here) via TATA; not fully specified (bridges)
notes: Bicyclic peptide cyclised with TATA; the first reactive group is 3-mercaptopropionic acid in place of cysteine
B2: BCY13133 (peptide)
peptide: A[hArg]DC[Hyp]LVNPLCLHP[dD]W[hArg][Cysteamide]
modifications: linker (positions not given here) via TATA; not fully specified (bridges)
notes: Bicyclic peptide cyclised with TATA; the third reactive group is cysteamine in place of cysteine

Assays:
human EphA2 [1] = target: T1, human EphA2 (human, UniProt P29317 25-534, limits assumed); assay: fluorescence polarisation competition with tracer BCY90, human EphA2, mean of 6
T1 construct: also called Eph receptor tyrosine kinase A2
T1 sequence (P29317 25-534 limits assumed): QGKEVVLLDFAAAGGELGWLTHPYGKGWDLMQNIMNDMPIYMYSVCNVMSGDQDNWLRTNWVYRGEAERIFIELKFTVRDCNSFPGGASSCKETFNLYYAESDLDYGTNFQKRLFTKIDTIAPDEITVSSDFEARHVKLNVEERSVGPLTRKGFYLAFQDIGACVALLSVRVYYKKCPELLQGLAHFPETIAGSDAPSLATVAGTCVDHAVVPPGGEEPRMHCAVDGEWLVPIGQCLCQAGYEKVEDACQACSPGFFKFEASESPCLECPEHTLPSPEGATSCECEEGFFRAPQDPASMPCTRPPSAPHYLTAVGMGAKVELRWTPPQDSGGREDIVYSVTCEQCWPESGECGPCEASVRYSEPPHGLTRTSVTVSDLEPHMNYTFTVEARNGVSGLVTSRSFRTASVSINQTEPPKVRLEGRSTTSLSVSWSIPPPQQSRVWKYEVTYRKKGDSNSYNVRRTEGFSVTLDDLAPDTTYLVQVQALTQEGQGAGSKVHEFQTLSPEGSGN
Experimental: (§1) Peptides without a fluorescent tag were tested in competition with a peptide with a fluorescent tag and a known Kd.
(§2) Peptides were diluted to an appropriate concentration in assay buffer as described in the direct binding assay with a maximum of 5% DMSO, then serially diluted 1 in 2. […] Measurements were conducted, however the gain was determined prior to the first measurement. Data analysis was in Systat Sigmaplot version 12.0 where the mP values were fit to a user defined cubic equation to generate a Ki value: […]

human EphA2 [2] = target: T1, human EphA2; assay: fluorescence polarisation competition with tracer BCY90, human EphA2, mean of 38
Experimental: as §1, §2

human EphA2 [3] = target: T1, human EphA2; assay: fluorescence polarisation competition with tracer BCY90, human EphA2, mean of 8
Experimental: as §1, §2

human EphA2 [4] = target: T1, human EphA2; assay: fluorescence polarisation competition with tracer BCY90, human EphA2, mean of 10
Experimental: as §1, §2

Binder	Ki (human EphA2 [1]) [nM]	also measured
A[hArg]DC[Hyp]LVNPLCLHP[dNle]W[hArg]C-NH2 (linker 4-11-18 via TATA, Bicyclic peptide cyclised with TATA) [BCY13134]	1.16	–
Ac-C[Hyp]LVNPLCL[Dip]P[dD]WTC[dK]-NH2 (linker 1-8-15 via TATA, Bicyclic peptide cyclised with TATA) [BCY13120]	0.916	–
C[Hyp]LVNPLCL[Dip]P[dD]WTC-NH2 (linker 1-8-15 via TATA, Bicyclic peptide cyclised with TATA) [BCY12860]	0.66	–
A[hArg]DC[Hyp]LVNPLCLEP[dD]W[hArg]C-NH2 (linker 4-11-18 via TATA, Bicyclic peptide cyclised with TATA) [BCY12854]	9.34	–
A[hArg]DC[Hyp]LVNPLCLNP[dD]W[hArg]C-NH2 (linker 4-11-18 via TATA, Bicyclic peptide cyclised with TATA) [BCY14047]	3.88	–
A[hArg]DC[Hyp]LVNPLCLQP[dD]W[hArg]C-NH2 (linker 4-11-18 via TATA, Bicyclic peptide cyclised with TATA) [BCY14048]	4.1	–
A[hArg]DC[Hyp]LVNPLCLHP[dD]W[hArg]C-NH2 (linker 4-11-18 via TATA, Bicyclic peptide cyclised with TATA) [BCY9594]	–	Ki (human EphA2 [2]): 1.44 nM
A[hArg]DC[Hyp]LVNPLCLFP[dD]W[hArg]C-NH2 (linker 4-11-18 via TATA, Bicyclic peptide cyclised with TATA) [BCY13920]	0.641	–
Ac-C[Hyp]LVNPLCLHP[dD]W[hArg]CL[dH]G[dK]-NH2 (linker 1-8-15 via TATA, Bicyclic peptide cyclised with TATA) [BCY13125]	1.83	–
ADC[Hyp]LVNPLCLEP[dD]WTC-NH2 (linker 3-10-17 via TATA, Bicyclic peptide cyclised with TATA) [BCY13128]	16.1	–
A[hArg]DC[Hyp]LVNPLCLHP[d1Nal]W[hArg]C-NH2 (linker 4-11-18 via TATA, Bicyclic peptide cyclised with TATA) [BCY13116]	–	Ki (human EphA2 [3]): 1.13 nM
A[hArg]DC[Hyp][Cba]VNPLCLEP[dD]WTC-NH2 (linker 4-11-18 via TATA, Bicyclic peptide cyclised with TATA) [BCY12863]	5.84	–
A[hArg]DC[Hyp][Aad]VNPLCLHP[dD]W[hArg]C-NH2 (linker 4-11-18 via TATA, Bicyclic peptide cyclised with TATA) [BCY13130]	7.8	–
A[hArg]DC[Hyp]LVNPLC[Aad]HP[dD]W[hArg]C-NH2 (linker 4-11-18 via TATA, Bicyclic peptide cyclised with TATA) [BCY13131]	27.1	–
A[hArg]DC[Hyp]LVNPLCL[His(τ-Me)]P[dD]W[hArg]C-NH2 (linker 4-11-18 via TATA, Bicyclic peptide cyclised with TATA) [BCY13918]	2.62	–
A[hArg]DC[Hyp]LVNPLCL[His3Me]P[dD]W[hArg]C-NH2 (linker 4-11-18 via TATA, Bicyclic peptide cyclised with TATA) [BCY13917]	1.72	–
A[hArg]DC[Hyp]LVNPLCL[Nle]P[dD]W[hArg]C-NH2 (linker 4-11-18 via TATA, Bicyclic peptide cyclised with TATA) [BCY13135]	0.894	–
C[Hyp][Cba]VNPLCL[Dip]P[dD]WTC[dA]-NH2 (linker 1-8-15 via TATA, Bicyclic peptide cyclised with TATA) [BCY12865]	0.857	–
A[hArg]DC[Hyp]LVNPLCL[1Nal]P[dD]W[hArg]C-NH2 (linker 4-11-18 via TATA, Bicyclic peptide cyclised with TATA) [BCY13117]	–	Ki (human EphA2 [3]): 1.12 nM
[NMeA][hArg]DC[Hyp]LVNPLCLEP[dD]WTC-NH2 (linker 4-11-18 via TATA, Bicyclic peptide cyclised with TATA) [BCY13122]	–	Ki (human EphA2 [3]): 7.8 nM
A[hArg]DC[Hyp]LVNPLCL[Ala(4-thiazolyl)]P[dD]W[hArg]C-NH2 (linker 4-11-18 via TATA, Bicyclic peptide cyclised with TATA) [BCY13919]	2.1	–

Binder	Ki (human EphA2 [1]) [nM]	also measured
A[hArg]DC[Hyp]LVNPLCL[Dip]P[dD]WTC-NH2 (linker 4-11-18 via TATA, Bicyclic peptide cyclised with TATA) [BCY12859]	–	Ki (human EphA2 [3]): 0.723 nM
B1	1.88	–
[dA][hArg]DC[Hyp][Cba]VNPLCLEP[dD]WTC[dA]-NH2 (linker 4-11-18 via TATA, Bicyclic peptide cyclised with TATA) [BCY12864]	9.29	–
[dA][hArg]DC[Hyp][Cba]VNPLCLEP[dA]WTC[dA]-NH2 (linker 4-11-18 via TATA, Bicyclic peptide cyclised with TATA) [BCY13123]	6.44	–
[dA]EDC[Hyp]LVNPLCLEP[dD]WTC-NH2 (linker 4-11-18 via TATA, Bicyclic peptide cyclised with TATA) [BCY13126]	25.3	–
[dA][dA]DC[Hyp]LVNPLCLEP[dD]WTC-NH2 (linker 4-11-18 via TATA, Bicyclic peptide cyclised with TATA) [BCY13127]	14.9	–
A[hArg]DC[Hyp]LVNPLCL[Dip]P[dD]W[hArg]C-NH2 (linker 4-11-18 via TATA, Bicyclic peptide cyclised with TATA) [BCY12866]	–	Ki (human EphA2 [4]): 0.244 nM
A[hArg]DC[Hyp][Cba]VNPLCLHP[dD]W[hArg]C-NH2 (linker 4-11-18 via TATA, Bicyclic peptide cyclised with TATA) [BCY12862]	1.22	–
A[hArg]DC[Hyp]LVNPLCL[Aad]P[dD]W[hArg]C-NH2 (linker 4-11-18 via TATA, Bicyclic peptide cyclised with TATA) [BCY13132]	7.08	–
A[hArg]DC[Hyp]LVNPLCLEP[d1Nal]WTC-NH2 (linker 4-11-18 via TATA, Bicyclic peptide cyclised with TATA) [BCY13118]	5.42	–
[NMeA][hArg]DC[Hyp]LVNPLCLHP[dD]W[hArg]C-NH2 (linker 4-11-18 via TATA, Bicyclic peptide cyclised with TATA) [BCY13121]	1.49	–
A[hArg]DC[Hyp]LVNPLCLEP[dD]WTC[dA]-NH2 (linker 4-11-18 via TATA, Bicyclic peptide cyclised with TATA) [BCY12857]	16	–
C[Hyp]LVNPLCLEP[dD]WTC[dA]-NH2 (linker 1-8-15 via TATA, Bicyclic peptide cyclised with TATA) [BCY12861]	21.7	–
B2	3.24	–
A[hArg]DC[Hyp]LVNPLCL[2Thi]P[dD]W[hArg]C-NH2 (linker 4-11-18 via TATA, Bicyclic peptide cyclised with TATA) [BCY13922]	1.14	–
A[hArg]DC[Hyp]LVNPLCLEP[dD]WTC-NH2 (linker 4-11-18 via TATA, Bicyclic peptide cyclised with TATA) [BCY12856]	–	Ki (human EphA2 [3]): 4.63 nM
A[hArg]DC[Hyp]LVNPLCLEP[dA]WTC-NH2 (linker 4-11-18 via TATA, Bicyclic peptide cyclised with TATA) [BCY12858]	8.19	–
A[hArg]DC[Hyp]LVNPLCLHP[dD]WTC-NH2 (linker 4-11-18 via TATA, Bicyclic peptide cyclised with TATA) [BCY12855]	5.55	–
A[hArg]DC[Hyp]LVNPLCL[3Thi]P[dD]W[hArg]C-NH2 (linker 4-11-18 via TATA, Bicyclic peptide cyclised with TATA) [BCY13923]	1.32	–
[d1Nal][hArg]DC[Hyp][Cba]VNPLCLEP[dA]WTC[dA]-NH2 (linker 4-11-18 via TATA, Bicyclic peptide cyclised with TATA) [BCY13124]	7.62	–
C[Hyp]LVNPLCL[1Nal]P[dD]WTC-NH2 (linker 1-8-15 via TATA, Bicyclic peptide cyclised with TATA) [BCY13119]	–	Ki (human EphA2 [3]): 2.64 nM
